Paper PMC9726900 (2022)

B1: CHD4(1–1380) (domain or fragment)
chain: MASGLGSPSPCSAGSEEEDMDALLNNSLPPPHPENEEDPEEDLSETETPKLKKKKKPKKPRDPKIPKSKRQKKERMLLCRQLGDSSGEGPEFVEEEEEVALRSDSEGSDYTPGKKKKKKLGPKKEKKSKSKRKEEEEEEDDDDDSKEPKSSAQLLEDWGMEDIDHVFSEEDYRTLTNYKAFSQFVRPLIAAKNPKIAVSKMMMVLGAKWREFSTNNPFKGSSGASVAAAAAAAVAVVESMVTATEVAPPPPPVEVPIRKAKTKEGKGPNARRKPKGSPRVPDAKKPKPKKVAPLKIKLGGFGSKRKRSSSEDDDLDVESDFDDASINSYSVSDGSTSRSSRSRKKLRTTKKKKKGEEEVTAVDGYETDHQDYCEVCQQGGEIILCDTCPRAYHMVCLDPDMEKAPEGKWSCPHCEKEGIQWEAKEDNSEGEEILEEVGGDLEEEDDHHMEFCRVCKDGGELLCCDTCPSSYHIHCLNPPLPEIPNGEWLCPRCTCPALKGKVQKILIWKWGQPPSPTPVPRPPDADPNTPSPKPLEGRPERQFFVKWQGMSYWHCSWVSELQLELHCQVMFRNYQRKNDMDEPPSGDFGGDEEKSRKRKNKDPKFAEMEERFYRYGIKPEWMMIHRILNHSVDKKGHVHYLIKWRDLPYDQASWESEDVEIQDYDLFKQSYWNHRELMRGEEGRPGKKLKKVKLRKLERPPETPTVDPTVKYERQPEYLDATGGTLHPYQMEGLNWLRFSWAQGTDTILADEMGLGKTVQTAVFLYSLYKEGHSKGPFLVSAPLSTIINWEREFEMWAPDMYVVTYVGDKDSRAIIRENEFSFEDNAIRGGKKASRMKKEASVKFHVLLTSYELITIDMAILGSIDWACLIVDEAHRLKNNQSKFFRVLNGYSLQHKLLLTGTPLQNNLEELFHLLNFLTPERFHNLEGFLEEFADIAKEDQIKKLHDMLGPHMLRRLKADVFKNMPSKTELIVRVELSPMQKKYYKYILTRNFEALNARGGGNQVSLLNVVMDLKKCCNHPYLFPVAAMEAPKMPNGMYDGSALIRASGKLLLLQKMLKNLKEGGHRVLIFSQMTKMLDLLEDFLEHEGYKYERIDGGITGNMRQEAIDRFNAPGAQQFCFLLSTRAGGLGINLATADTVIIYDSDWNPHNDIQAFSRAHRIGQNKKVMIYRFVTRASVEERITQVAKKKMMLTHLVVRPGLGSKTGSMSKQELDDILKFGTEELFKDEATDGGGDNKEGEDSSVIHYDDKAIERLLDRNQDETEDTELQGMNEYLSSFKVAQYVVREEEMGEEEEVEREIIKQEESVDPDYWEKLLRHHYEQQQEDLARNLGKGKRIRKQVNYNDGSQEDRDWQDDQSDNQSDYSVASEEGDEDFDER
B2: CHD4(1–1230) (domain or fragment)
chain: MASGLGSPSPCSAGSEEEDMDALLNNSLPPPHPENEEDPEEDLSETETPKLKKKKKPKKPRDPKIPKSKRQKKERMLLCRQLGDSSGEGPEFVEEEEEVALRSDSEGSDYTPGKKKKKKLGPKKEKKSKSKRKEEEEEEDDDDDSKEPKSSAQLLEDWGMEDIDHVFSEEDYRTLTNYKAFSQFVRPLIAAKNPKIAVSKMMMVLGAKWREFSTNNPFKGSSGASVAAAAAAAVAVVESMVTATEVAPPPPPVEVPIRKAKTKEGKGPNARRKPKGSPRVPDAKKPKPKKVAPLKIKLGGFGSKRKRSSSEDDDLDVESDFDDASINSYSVSDGSTSRSSRSRKKLRTTKKKKKGEEEVTAVDGYETDHQDYCEVCQQGGEIILCDTCPRAYHMVCLDPDMEKAPEGKWSCPHCEKEGIQWEAKEDNSEGEEILEEVGGDLEEEDDHHMEFCRVCKDGGELLCCDTCPSSYHIHCLNPPLPEIPNGEWLCPRCTCPALKGKVQKILIWKWGQPPSPTPVPRPPDADPNTPSPKPLEGRPERQFFVKWQGMSYWHCSWVSELQLELHCQVMFRNYQRKNDMDEPPSGDFGGDEEKSRKRKNKDPKFAEMEERFYRYGIKPEWMMIHRILNHSVDKKGHVHYLIKWRDLPYDQASWESEDVEIQDYDLFKQSYWNHRELMRGEEGRPGKKLKKVKLRKLERPPETPTVDPTVKYERQPEYLDATGGTLHPYQMEGLNWLRFSWAQGTDTILADEMGLGKTVQTAVFLYSLYKEGHSKGPFLVSAPLSTIINWEREFEMWAPDMYVVTYVGDKDSRAIIRENEFSFEDNAIRGGKKASRMKKEASVKFHVLLTSYELITIDMAILGSIDWACLIVDEAHRLKNNQSKFFRVLNGYSLQHKLLLTGTPLQNNLEELFHLLNFLTPERFHNLEGFLEEFADIAKEDQIKKLHDMLGPHMLRRLKADVFKNMPSKTELIVRVELSPMQKKYYKYILTRNFEALNARGGGNQVSLLNVVMDLKKCCNHPYLFPVAAMEAPKMPNGMYDGSALIRASGKLLLLQKMLKNLKEGGHRVLIFSQMTKMLDLLEDFLEHEGYKYERIDGGITGNMRQEAIDRFNAPGAQQFCFLLSTRAGGLGINLATADTVIIYDSDWNPHNDIQAFSRAHRIGQNKKVMIYRFVTRASVEERITQVAKKKMMLTHLVVRPGLGSKTGSMSKQELDDILKFGTEELFKDE
B3: CHD4(1–1810) (domain or fragment)
chain: MASGLGSPSPCSAGSEEEDMDALLNNSLPPPHPENEEDPEEDLSETETPKLKKKKKPKKPRDPKIPKSKRQKKERMLLCRQLGDSSGEGPEFVEEEEEVALRSDSEGSDYTPGKKKKKKLGPKKEKKSKSKRKEEEEEEDDDDDSKEPKSSAQLLEDWGMEDIDHVFSEEDYRTLTNYKAFSQFVRPLIAAKNPKIAVSKMMMVLGAKWREFSTNNPFKGSSGASVAAAAAAAVAVVESMVTATEVAPPPPPVEVPIRKAKTKEGKGPNARRKPKGSPRVPDAKKPKPKKVAPLKIKLGGFGSKRKRSSSEDDDLDVESDFDDASINSYSVSDGSTSRSSRSRKKLRTTKKKKKGEEEVTAVDGYETDHQDYCEVCQQGGEIILCDTCPRAYHMVCLDPDMEKAPEGKWSCPHCEKEGIQWEAKEDNSEGEEILEEVGGDLEEEDDHHMEFCRVCKDGGELLCCDTCPSSYHIHCLNPPLPEIPNGEWLCPRCTCPALKGKVQKILIWKWGQPPSPTPVPRPPDADPNTPSPKPLEGRPERQFFVKWQGMSYWHCSWVSELQLELHCQVMFRNYQRKNDMDEPPSGDFGGDEEKSRKRKNKDPKFAEMEERFYRYGIKPEWMMIHRILNHSVDKKGHVHYLIKWRDLPYDQASWESEDVEIQDYDLFKQSYWNHRELMRGEEGRPGKKLKKVKLRKLERPPETPTVDPTVKYERQPEYLDATGGTLHPYQMEGLNWLRFSWAQGTDTILADEMGLGKTVQTAVFLYSLYKEGHSKGPFLVSAPLSTIINWEREFEMWAPDMYVVTYVGDKDSRAIIRENEFSFEDNAIRGGKKASRMKKEASVKFHVLLTSYELITIDMAILGSIDWACLIVDEAHRLKNNQSKFFRVLNGYSLQHKLLLTGTPLQNNLEELFHLLNFLTPERFHNLEGFLEEFADIAKEDQIKKLHDMLGPHMLRRLKADVFKNMPSKTELIVRVELSPMQKKYYKYILTRNFEALNARGGGNQVSLLNVVMDLKKCCNHPYLFPVAAMEAPKMPNGMYDGSALIRASGKLLLLQKMLKNLKEGGHRVLIFSQMTKMLDLLEDFLEHEGYKYERIDGGITGNMRQEAIDRFNAPGAQQFCFLLSTRAGGLGINLATADTVIIYDSDWNPHNDIQAFSRAHRIGQNKKVMIYRFVTRASVEERITQVAKKKMMLTHLVVRPGLGSKTGSMSKQELDDILKFGTEELFKDEATDGGGDNKEGEDSSVIHYDDKAIERLLDRNQDETEDTELQGMNEYLSSFKVAQYVVREEEMGEEEEVEREIIKQEESVDPDYWEKLLRHHYEQQQEDLARNLGKGKRIRKQVNYNDGSQEDRDWQDDQSDNQSDYSVASEEGDEDFDERSEAPRRPSRKGLRNDKDKPLPPLLARVGGNIEVLGFNARQRKAFLNAIMRYGMPPQDAFTTQWLVRDLRGKSEKEFKAYVSLFMRHLCEPGADGAETFADGVPREGLSRQHVLTRIGVMSLIRKKVQEFEHVNGRWSMPELAEVEENKKMSQPGSPSPKTPTPSTPGDTQPNTPAPVPPAEDGIKIEENSLKEEESIEGEKEVKSTAPETAIECTQAPAPASEDEKVVVEPPEGEEKVEKAEVKERTEEPMETEPKGAADVEKVEEKSAIDLTPIVVEDKEEKKEEEEKKEVMLQNGETPKDLNDEKQKKNIKQRFMFNIADGGFTELHSLWQNEERAATVTKKTYEIWHRRHDYWLLAGIINHGYARWQDIQNDPRYAILNEPFKGEMNRGNFLEIKNKFLARRFKLLEQALVIEEQLRRAAYLNMSED
B4: CHD4(1–1540) (domain or fragment)
chain: MASGLGSPSPCSAGSEEEDMDALLNNSLPPPHPENEEDPEEDLSETETPKLKKKKKPKKPRDPKIPKSKRQKKERMLLCRQLGDSSGEGPEFVEEEEEVALRSDSEGSDYTPGKKKKKKLGPKKEKKSKSKRKEEEEEEDDDDDSKEPKSSAQLLEDWGMEDIDHVFSEEDYRTLTNYKAFSQFVRPLIAAKNPKIAVSKMMMVLGAKWREFSTNNPFKGSSGASVAAAAAAAVAVVESMVTATEVAPPPPPVEVPIRKAKTKEGKGPNARRKPKGSPRVPDAKKPKPKKVAPLKIKLGGFGSKRKRSSSEDDDLDVESDFDDASINSYSVSDGSTSRSSRSRKKLRTTKKKKKGEEEVTAVDGYETDHQDYCEVCQQGGEIILCDTCPRAYHMVCLDPDMEKAPEGKWSCPHCEKEGIQWEAKEDNSEGEEILEEVGGDLEEEDDHHMEFCRVCKDGGELLCCDTCPSSYHIHCLNPPLPEIPNGEWLCPRCTCPALKGKVQKILIWKWGQPPSPTPVPRPPDADPNTPSPKPLEGRPERQFFVKWQGMSYWHCSWVSELQLELHCQVMFRNYQRKNDMDEPPSGDFGGDEEKSRKRKNKDPKFAEMEERFYRYGIKPEWMMIHRILNHSVDKKGHVHYLIKWRDLPYDQASWESEDVEIQDYDLFKQSYWNHRELMRGEEGRPGKKLKKVKLRKLERPPETPTVDPTVKYERQPEYLDATGGTLHPYQMEGLNWLRFSWAQGTDTILADEMGLGKTVQTAVFLYSLYKEGHSKGPFLVSAPLSTIINWEREFEMWAPDMYVVTYVGDKDSRAIIRENEFSFEDNAIRGGKKASRMKKEASVKFHVLLTSYELITIDMAILGSIDWACLIVDEAHRLKNNQSKFFRVLNGYSLQHKLLLTGTPLQNNLEELFHLLNFLTPERFHNLEGFLEEFADIAKEDQIKKLHDMLGPHMLRRLKADVFKNMPSKTELIVRVELSPMQKKYYKYILTRNFEALNARGGGNQVSLLNVVMDLKKCCNHPYLFPVAAMEAPKMPNGMYDGSALIRASGKLLLLQKMLKNLKEGGHRVLIFSQMTKMLDLLEDFLEHEGYKYERIDGGITGNMRQEAIDRFNAPGAQQFCFLLSTRAGGLGINLATADTVIIYDSDWNPHNDIQAFSRAHRIGQNKKVMIYRFVTRASVEERITQVAKKKMMLTHLVVRPGLGSKTGSMSKQELDDILKFGTEELFKDEATDGGGDNKEGEDSSVIHYDDKAIERLLDRNQDETEDTELQGMNEYLSSFKVAQYVVREEEMGEEEEVEREIIKQEESVDPDYWEKLLRHHYEQQQEDLARNLGKGKRIRKQVNYNDGSQEDRDWQDDQSDNQSDYSVASEEGDEDFDERSEAPRRPSRKGLRNDKDKPLPPLLARVGGNIEVLGFNARQRKAFLNAIMRYGMPPQDAFTTQWLVRDLRGKSEKEFKAYVSLFMRHLCEPGADGAETFADGVPREGLSRQHVLTRIGVMSLIRKKVQEFEHVNGRWSMPELAEVEENKKMSQPGSPSPKT

molecular target: 46w60 nucleosome (recombinant human histone octamer on Widom 601 DNA with 46-bp and 60-bp flanks), … (human, UniProt P0C0S8 1-130; P62807 1-126; P68431 1-136; P62805 1-103); assay: MST

Point of comparison: B3, Kd 150 nM. Against it:
- B1 — 2.9-fold higher, 430 nM
- B2 — 1.7-fold higher, 250 nM
- B4 — within 1.5-fold, 210 nM
